Measurements taken from patent US20210395344A1 (TWIST BIOSCIENCE, published 2021).
Changes are numbered by the printed parent chain.

B1: SARS-CoV-2 variant 1-22 (antibody, V domains shown)
VH: EVQLLESGGGLVQPGGSLRLSCAASGFTFSSYAMNWVRQAPGKGLEWVSIISGSGGSTYYADSVKGRFTISRDNSKNTLYLQMNSLRAEDTAVYYCAREGYRDYLWYFDLWGQGTLVTVSS
VL: QSALTQPASVSGSPGQSITISCTGTSTDVGSYNLVSWYQQHPGKAPKLMIYEGSQRPSGVSNRFSGSKSGNTASLTISGLQAEDEADYYCCSYAGSSTVFGGGTKLTVL
B2: SARS-CoV-2 variant 1-23 (antibody, V domains shown)
VH: B1 VH with M34I, N35S
VL: B1 VL with T27N, S54N, Q55K, S97Y
B3: SARS-CoV-2 variant 1-24 (antibody, V domains shown)
VH: B1 VH
VL: B1 VL with T27S, S31Y, S54N, Q55K, S96G, T98V
B4: SARS-CoV-2 variant 1-10 (antibody, V domains shown)
VH: EVQLLESGGGLVQPGGSLRLSCAASGFTFSSYDMSWVRQAPGKGLEWVSVISGSGGSTYYADSVKGRFTISRDNSKNTLYLQMNSLRAEDTAVYYCAKGPLVGWYFDLWGQGTLVTVSS
VL: QSALTQPASVSGSPGQSITISCTGTSSNVGSYNLVSWYQQHPGKAPKLMIYEGTKRPSGVSNRFSGSKSGNTASLTISGLQAEDEADYYCCSYAGSSSFVVFGGGTKLTVL
B5: SARS-CoV-2 variant 1-7 (antibody, V domains shown)
VH: B4 VH
VL: B4 VL with N28D, V29F, T54N, S98T
B6: SARS-CoV-2 variant 1-9 (antibody, V domains shown)
VH: B4 VH
VL: B4 VL with N28D, S31D, T54S, K55N
B7: SARS-CoV-2 variant 1-30 (antibody, V domains shown)
VH: EVQLLESGGGLVQPGGSLRLSCAASGFTFSSYAMTWVRQAPGKGLEWVSAISGSGGSTFYADSVKGRFTISRDNSKNTLYLQMNSLRAEDTAVYYCTRPPYGDYGDYWGQGTLVTVSS
VL: B4 VL with S27R, N28D, S97R, S98T, F99P
B8: SARS-CoV-2 variant 1-31 (antibody, V domains shown)
VH: B7 VH with T35N
VL: B4 VL with N28D, S31K, T54S, K55Q, S97R, S98T, F99P
B9: SARS-CoV-2 variant 1-33 (antibody, V domains shown)
VH: B7 VH with T35I
VL: B4 VL with N28D, V35L, G53A, T54S, S97R, S98T, F99P
B10: SARS-CoV-2 variant 1-2 (antibody, V domains shown)
VH: EVQLLESGGGLVQPGGSLRLSCAASGFTFSSQAMSWVRQAPGKGLEWVSAISGSGGGTYYADSVKGRFTISRDNSKNTLYLQMNSLRAEDTAVYYCAKDRRFGEFDPWGQGTLVTVSS
VL: B4 VL with N28G, T54I
B11: SARS-CoV-2 variant 1-3 (antibody, V domains shown)
VH: B10 VH
VL: B4 VL with T25I, N28D
B12: SARS-CoV-2 variant 1-4 (antibody, V domains shown)
VH: B10 VH
VL: B4 VL with N28D, S31T, T54S, K55Q
B13: SARS-CoV-2 variant 1-5 (antibody, V domains shown)
VH: B10 VH
VL: B4 VL with N28G, G53A, T54S, S97Y, S98T, V100A
B14: SARS-CoV-2 variant 1-38 (antibody, V domains shown)
VH: EVQLLESGGGLVQPGGSLRLSCAASGITFSSYAMSWVRQAPGKGLEWVSGISGSGGSTYYADSVKGRFTISRDNSKNTLYLQMNSLRAEDTAVYYCAKHGSGTIFGVVIAKYYFDYWGQGTLVTVSS
VL: QSALTQPASVSGSPGQSITISCTGTSSDIGSYNLVSWYQQHPGKAPKLMIYEGTKRPSGVSNRFSGSKSGNTASLTISGLQAEDEADYYCCSYAGSRTYVFGGGTKLTVL

Target: T1, Acro COVID S1 (S1N-C82E8) (SARS-CoV-2, UniProt P0DTC2 16-685)
T1 construct: domain: S1 (subunit 1)
Assay: phage ELISA

Binder | specificity ELISA, fold over background
B1 | 32.7 fold over background
B2 | 5.1 fold over background
B3 | 12.9 fold over background
B4 | 17.4 fold over background
B5 | 6.8 fold over background
B6 | 10.7 fold over background
B7 | 16.8 fold over background
B8 | 30.4 fold over background
B9 | 7.1 fold over background
B10 | 1.8 fold over background
B11 | 1.6 fold over background
B12 | 1 fold over background
B13 | 1.5 fold over background
B14 | 1.1 fold over background
